Test: soluble on expression in E. coli; label from the status in PepcDB or PDB records

## MEQDTQHVKPLQTKTDIHAVLASNGRIIYISANSKLHLGYLQGEMIGSFLKTFLHEEDQFLVESYFYNEHHLMPCTFRFIKKDHTIVWVEAAVEIVTTRAERTEREIILKMKVLEEETGHQSLNCEKHEIEPASPESTTYITDDYERLVENLPSPLCISVKGKIVYVNSAMLSMLGAKSKDAIIGKSSYEFIEEEYHDIVKNRIIRMQKGMEVGMIEQTWKRLDGTPVHLEVKASPTVYKNQQAELLLLIDISSRKKFQTILQKSRERYQLLIQNSIDTIAVIHNGKWVFMNESGISLFEAATYEDLIGKNIYDQLHPCDHEDVKERIQNIAEQKTESEIVKQSWFTFQNRVIYTEMVCIPTTFFGEAAVQVILRDISERKQTEELMLKSEKLSIAGQLAAGIAHEIRNPLTAIKGFLQLMKPTMEGNEHYFDIVFSELSRIELILSELLMLAKPQQNAVKEYLNLKKLIGEVSALLETQANLNGIFIRTSYEKDSIYINGDQNQLKQVFINLIKNAVESMPDGGTVDIIITEDEHSVHVTVKDEGEGIPEKVLNRIGEPFLTTKEKGTGLGLMVTFNIIENHQGVIHVDSHPEKGTAFKISFPKK
  soluble on expression in E. coli: not soluble

## MGSSHHHHHHSSGLVPRGSHMEHAFTPLEPLLPTGNLKYCLVVLNQPLDARFRHLWKKALLRACADGGANHLYDLTEGERESFLPEFVSGDFDSIRPEVKEYYTKKGCDLISTPDQDHTDFTKCLQVLQRKIEEKELQVDVIVTLGGLGGRFDQIMASVNTLFQATHITPVPIIIIQKDSLIYLLQPGKHRLHVDTGMEGSWCGLIPVGQPCNQVTTTGLKWNLTNDVLGFGTLVSTSNTYDGSGLVTVETDHPLLWTMAIKS
  soluble on expression in E. coli: soluble

## QVQLQESGPGLVAPSQSLSITCTVSGFSLTGYGVNWVRQPPGKGLEWLGMIWGDGNTDYNSALKSRLSISKDNSKSQVFLKMNSLHTDDTARYYCARERDFRLDYWGQGTTLTVSS
  soluble on expression in E. coli: soluble

## MRDYKQLNGLALAYVGDAIYEIYIRDYLVSLGQTKPNVLHRMATHYVSAKAQASLMQAMLAGEMLTEEEEVMYKRGRNAKSHTFAKNADVTTYRVATGFESLMGYLHLTQQKERLEELINWCIKKVGETNEK
  soluble on expression in E. coli: not soluble

## MGSDKIHHHHHHMKSFDEMTPKEIVQELDKYIVGQYEAKKAVAIAVRNRIRRQKLPEEWRKEVLPKNILMIGPTGVGKTEIARRLAQLSGSPFLKVEATRFTEVGYVGKNVDSMIRDLVEISVNMVKQEKIKEVERQAEELVEERILDALVPESKAMPVVTNPFINLITGGQQQQYTPEDRRRFRAKREEMREKLRKGELEDEEIEIELEETVSPFMGIFGPGMEDLGIEITNMFSGMLPKRKKKRKMKVSEARKVLLPLEAEKLIDMDKVVQEALDRAQNRGIIFIDEIDKIAGKESAVGPDVSRQGVQRDLLPIVEGTTIMTKYGPVRTDFILFIAAGAFHVSRPSDLIPELQGRFPIRVELSPLTEEDFVRILKEPENAIIKQYQALLSTEGVELVFTEDGIREMARIAYQLNQRLENIGARRLYTVAEKVLEEISFEAPDIPEKRVVVDAEYVRRRLEKIVQDEDLSAYIL
  soluble on expression in E. coli: not soluble

## RPVWYGEPVDIQPEHRDMMLVVDLSGSMAEEDMKTSNGDFVDRLTAVKQVVSDFIDQRKGDRLGLVLFGDHAYLQTPLTFDRNTVREQLDRTVLNLVGQRTAIGEGLGLATKTFIESNAPQRTIILLSDGANTAGVLEPLEAAQLAKDNHAKIYTVGIGAGEMQVRGFFGKQTVNTARDLDEDTLTKIATMTGGQYFRARNADELAEIYQTI
  soluble on expression in E. coli: not soluble

## ADQPSPTWGIDRIDQRNLPLDNNYHTDYDGSGVTAFVIDTGVLNTHNEFGGRASSGYDFIDNDYDATDCNGHGTHVAGTIGGSTYGVAKNVNVVGVRVLNCSGSGSNSGVIAGINWVKNNASGPAVANMSLGGGASQATDDAVNAAVAAGITFVVAAGNDNSNACNYSPARAADAITVGSTTSNDSRSSFSNYGTCLDIYAPGSSITSSWYTSNSATNTISGTSMASPHVAGVAALYLDENPNLSPAQVTNLLKTRATADKVTDAKTGSPNKLLFSLA
  soluble on expression in E. coli: soluble

## MGSDKIHHHHHHMELKEHFNNKIFKLISETADELGLECYVVGGYVRDIFLKRPSKDIDVVVVGSGIEMAQAFGRKLGRGARVSVFKNFGTAQIKYHDTEVEFVGARKESYSHDSRKPVVENGTLEDDQNRRDFTINAMAVCLNKARFGELVDPFNGLDDLKERTIRTPLDPDITFSDDPLRMMRCVRFATQLNFYIDDTTFEALSRNKERIHIISKERIADELNKILLAPIPSKGFIELDRCGLLPLIFPELVALQGVETRNGRAHKDNFYHTLEVVDNISKHTDNLWLRWATLLHDIGKPRTKRWEPRIGWTFHNHNFIGEKMVPDLFRKMKLPMNEKMKYVQKLVSLHMRPIVIADDVVTDSAVRRLLFEAGDDIDDLMMLCEADITSKNEARKQKFLDNFKLVRQKLKDLEEKDRIRNFQPPVDGEEIMRIFDLQPCREIGSLKSSIKDAILDGIIPNEHDAALEHMLKKAKSMGLTPKNL
  soluble on expression in E. coli: not soluble

## CRELLPVEARQKTLLIDADLTLDEITPKFLNVLEQFAPFGFSNREPLFTATGCRLVGKPKLLRERHVKFTVRGEQSSSFEVIAFDRPDIFNDLEAHGSASALQLVCIPERNQWNGREYVQLRVMDMAIG
  soluble on expression in E. coli: not soluble

## MGSDKIHHHHHHMRINHNISALNAWRNISQTQYSMSKTLERLSSGLRINRAGDDAAGLAISEKMRGQIKGLNMAIKNAQDAISLIQTAEGALTEVHSILQRMRELAVQAASDTNTDVDREQIQKEIDQLREEIDRIARTTEFNTKKLLDGKLESFRSQVDAKVVTGGNINVQLGSVSSAAVEGTYVIEVGQFNGAETSELDVKITLFTAGGYSTTVVTITVGSATVGNINFTWDTDVLSINDFGGALPKNEVVDSAVVRVEAIYTSASQLIFQIGANEGHNMVAGIDDMSAAALGLTTVSLDVTTQDAAERAIMVVDAAIHRVSTARAALGAVQNRLEHTISNLGVAAENLTAAESRIRDADMAKEMMEFTKQQILLQSSMAMLAQSNTLPQNVLQLMR
  soluble on expression in E. coli: not soluble

## QSIVVDMREFRSELPSLIHRRGIDIEPVTLEVGDYILTPEMCVERKSISDLIGSLNNGRLYSQCISMSRYYKRPVLLIEFD
  soluble on expression in E. coli: not soluble

## AHHHHHHGSGSSRTFRTSWADLGNLAKSIPPHHHLNPFEGKWNKKLSKKAIIMWQINVNDNRKFLSDC
  soluble on expression in E. coli: not soluble

## MIDFSNFYQLIAKSPLSHWLETLPAQVAAWQRDALHGKFREWERAVEFLPELTPWRLDLLHSVTAESETPLSEGHQRRIENLLKNLMPWRKGPYSLYGINIDTEWRSDWKWERVLPHLSDLTGRTILDVGCGSGYHMWRMIGAGAHLAVGIDPTQLFLCQFEAVRKLLGNDQRAHLLPLGIEQLPALEAFDTVFSMGVLYHRRSPLDHLWQLKDQLAPGGELVLETLVVEGDENTVLVPGDRYAQMRNVYFIPSAAALKMWLEKCGFIDVRIVDACVTSTEEQRRTEWMTTESLADFLDPQDQRKTVEGYPAPLRAVIIATKPETQQSLAKKAR
  soluble on expression in E. coli: not soluble

## MGSDKIHHHHHHMINRELYMEQITPFIDKPFVKVITGIRRCGKSVVLRLIREELLRRGVSEDYIIYMNFESFEWIDMKEAKALYAHIREATKASGKYYILLDEIQEVTDWEKAVNAFLVDLDVDIYVTGSNSRLLSSEFSTYLAGRYVAFHIMTLSFREYLLFHDLPLTISVSDRKTEFLKYLRMGGFPAIHTANYDYNAIYKIVYDIYSSVILRDTVQRHSIRNVEMLERVVKFVFDNIGNKLNAKNIADYFKSQQRKVDINTIYNYLNALDSAFVIQRIPRYDIKGKEILQTNEKYFVSDLSLIYSVMGYRDRLIGGMLENLVCMELKRRGYEVYVGKQDEKEVDFVAIRREEKIYVQVTYQLGLQATIDREFAPLLAIDDHYPKYVVSMDDLWQDNIEGVKHRHIADFLLDEW
  soluble on expression in E. coli: not soluble

## MAENYQQAAKDIIQLIGMDNIISVTHCQTRLRFILKDHEQVDGKQLEKIDLVKGVFYNGGQYQVILGTGIVTKVYDEIEKLGINVVSKAEQTAI
  soluble on expression in E. coli: not soluble

## MNQRILSTLGFDKVKQQLLQFIVTAQGTNEVSELLPIADENKIQSWLNETQDGLKVQRLRGGIPIPKLENIQPHMKRIEIGADLNGIELAQVGRVLSTTSELTRFFDELSENEVDLEHHHHHH
  soluble on expression in E. coli: not soluble

## INTVGYLEQKMFAAMVADNQMAMVMLNPKNLKASNGEEELAGQTWYWKVAPVATTQPLLKAFDVSVAAEKQASPIITVRSYVAK
  soluble on expression in E. coli: soluble

## MGSDKIHHHHHHKNTDLVAEDSICFPIDEHTYYASKSIFQFEENGHEYLSFLDAEYSQKINIYDIKNQKLIKTILLQKEGPNGMNVLSGCHPLNLNHFIITSWNGTFSLVNDKGEIEKKFDFWEKGVNFQEFDHISFSSYSYKPAIIKDSILYFSQSFLKHPRKKSDWNKIPMFAFANLNTGKTGWSELRYPLIFNKDEDFKNVKLYDPEICYTYTGKDVVISLGQYDSIMVSSDFKHKISYNAKSRYLAHAYPHLQDGQIDLFKNIQIQGKLPHYSHLMYDKYRKVFYRFALMPDDNIKPFSNNPHQSFSIIILNKDYEIIGETKFPGNTYTHHLCFVGKKGLYISENNENNPQFDENKLVFRCFTLQDRKK
  soluble on expression in E. coli: not soluble

## MRIDTVNVLLEALPYIKEFYGKTFVIKFGGSAMKQENAKKAFIQDIILLKYTGIKPIIVHGGGPAISQMMKDLGIEPVFKNGHRVTDEKTMEIVEMVLVGKINKEIVMNLNLHGGRAVGICGKDSKLIVAEKETKHGDIGYVGKVKKVNPEILHALIENDYIPVIAPVGIGEDGHSYNINADTAAAEIAKSLMAEKLILLTDVDGVLKDGKLISTLTPDEAEELIRDGTVTGGMIPKVECAVSAVRGGVGAVHIINGGLEHAILLEIFSRKGIGTMIKELEG
  soluble on expression in E. coli: soluble

## MAFGVSHPVALDLEATSTDPSEAEVLEVAAVDGEGRVFHRYLATQRPLPPDHEVFQLTGIPYEEYEAKKVAPKEALEELLAFLGGRPLLGHNLLRYDLPLLQRHLEEAGLPRWQGEALDTLRLAHLLFPTPPGGLEGYRLGDLYAFLLGRPLEGAHRALNDAQATLAVFHRLLDRGRRALAQHPGLVRAWRELGLPEGHLFPEDEGLIKDLLAREADVEAFFVEKEGRPFPAPTDLGPDLLPKPRPAQRIKEFVQVAHGVAGQGLVGRERPLHEVLERGLRLAVGEAEEGAVEKEG
  soluble on expression in E. coli: soluble

## MNCVCGSGKTYDDCCGPLLARTRSAASPEALMRSRYAAYALKDFDYIVETTDPERRDLFDHDVNRAWMEESDFLELRVLGSSEKGSRGTVEFIARFRRGGGPEQSHHERSQFRKARGRWYFSEGEAVD
  soluble on expression in E. coli: soluble

## MGSDKIHHHHHHVNDGSNDFELLGSPWICENPHANWTAPAAHGMFKRFKKKEIIIHSGDQIDYIYYLHKGRIKTVAQSPSGSQKILWYIEAGSIFGETPFFNRKPCDYNFFAVTDCEIYIYPMEVIMQEIIPKFPDLTLSIIKTLSRKVHILSTQVEDCVFNKPLVRVAKLIYLLHQGRILEDKRGSSSIPLTQEDIANTLGMHRVTVNQALKHLKEIQALKEHTHLIIIHDPEKLKEVMEA
  soluble on expression in E. coli: not soluble

## MAQHFRLSTAARQLSSDSLVCLPDAEIFQRLKQARWGNADNFVCPHCHIRHLAYFISTRKQWQCKHCQHRFSITAGTIFQGAKLPLRKILLAILYFATESKGLSAIALSHKLNVQYKTAWVLLHKFRESLDKAKDLTPLNGEVHIDGAYTNYYIRPKNFRHKRIDRRKKRYQRADKSCVLVFRQRAANQAVMKGADRSIVALVKEENTKDVLELTQRLVKPNSTIHADENPAYDCLAFHYDLWRVNHSQEYRSIEGITNNLAESFFARLRRAITGIYHKMSNKYLMYYANEMVWREDHRRKSVKEKFEQLLTCCLNTLPSRDFTGYWQGNKKGEAVFGLASLTASNDLHYLKAALEHHHHHH
  soluble on expression in E. coli: soluble
